Test results reported in publication PMC8706816, “Hydrogen Sulfide Improves the Cold Stress Resistance through the CsARF5-CsDREB3 Module in Cucumber”.

Molecular target: T1, CsARF5-HIS (Cucumis sativus, UniProt A0A0A0LE69 1-948)
T1 sequence: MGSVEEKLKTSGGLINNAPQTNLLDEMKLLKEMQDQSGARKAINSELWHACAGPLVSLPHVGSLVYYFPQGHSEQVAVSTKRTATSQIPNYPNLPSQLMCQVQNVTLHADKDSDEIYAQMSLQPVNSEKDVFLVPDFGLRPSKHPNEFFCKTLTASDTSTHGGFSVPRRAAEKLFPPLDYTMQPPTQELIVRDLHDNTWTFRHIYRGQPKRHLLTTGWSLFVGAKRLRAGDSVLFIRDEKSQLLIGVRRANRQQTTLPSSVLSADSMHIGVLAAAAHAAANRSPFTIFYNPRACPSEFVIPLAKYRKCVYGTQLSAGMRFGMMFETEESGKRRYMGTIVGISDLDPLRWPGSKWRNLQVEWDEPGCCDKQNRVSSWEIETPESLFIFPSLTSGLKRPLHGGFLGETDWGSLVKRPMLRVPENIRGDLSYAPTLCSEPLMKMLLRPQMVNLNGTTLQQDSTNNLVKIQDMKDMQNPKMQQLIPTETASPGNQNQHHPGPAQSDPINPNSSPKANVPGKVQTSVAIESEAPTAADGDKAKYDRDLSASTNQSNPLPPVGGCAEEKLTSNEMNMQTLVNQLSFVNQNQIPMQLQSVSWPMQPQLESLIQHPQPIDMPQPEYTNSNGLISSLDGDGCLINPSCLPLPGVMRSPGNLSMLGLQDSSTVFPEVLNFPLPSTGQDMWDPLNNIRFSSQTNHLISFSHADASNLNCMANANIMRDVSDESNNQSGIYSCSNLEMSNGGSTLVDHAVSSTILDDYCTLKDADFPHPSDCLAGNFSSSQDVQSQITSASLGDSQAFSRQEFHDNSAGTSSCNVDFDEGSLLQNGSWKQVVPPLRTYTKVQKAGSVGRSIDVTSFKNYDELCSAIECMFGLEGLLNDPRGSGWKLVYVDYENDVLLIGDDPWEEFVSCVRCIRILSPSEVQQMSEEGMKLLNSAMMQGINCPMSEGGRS
Experiment: EMSA; EMSA: protein and probe incubated at 24 °C for 30 min, nondenaturing acrylamide gel; buffer, salt and pH not stated
Settings: protein: recombinant; tags: His; label: biotin

B1: CsDREB3 promoter probe (dsDNA)
DNA 1: ATCGGGGTAAGAGACATTAAGAAACA
DNA 2: TGTTTCTTAATGTCTCTTACCCCGAT
binding result: binds
